In US20250243290A1:
“And” between values parts separate entries of the source, which are not always exact repeats. Equal values may be shown once. Read-outs that look alike come from different tables or passages of the source.

Columns and labels:
Assay in all cases: peptide-array ELISA [Con't]
[1] = target: …2KP2…2…
[2] = target: CGWY2ALSKQEG2RL2CNASMDAV2TSTSPTRC
QNRI2…2RL = target: QNRI2…2RL
[3] = target: …2KCAPLRK2…
CLSKQEG2RL2…22SK2C = target: CLSKQEG2RL2…22SK2C
[4] = target: CGSR2…
…2TSTSPTRC = target: …2TSTSPTRC
Sequence of …2TSTSPTRC (peptide, as listed by the source): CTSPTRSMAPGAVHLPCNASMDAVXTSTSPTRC

[5] = target: …2…
Sequence of …2… (peptide, as listed by the source): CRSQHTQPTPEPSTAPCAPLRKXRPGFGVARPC

ALSKQEG2…2APGTFSN = target: ALSKQEG2…2APGTFSN
[6] = target: SCGSR2…
Sequence of SCGSR2… (peptide, as listed by the source): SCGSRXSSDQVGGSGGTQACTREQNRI

…2…2TSTSPTRC [7] = target: …2…2TSTSPTRC
E2LSCGSR2…2T2 = target: E2LSCGSR2…2T2
…2RLCQA2TREQNRI2T2RPC = target: …2RLCQA2TREQNRI2T2RPC
CDQVETQA2…2TREQNRI2T2RPC = target: CDQVETQA2…2TREQNRI2T2RPC
[8] = target: EGCRL2…2…
NWVPE2…2 = target: NWVPE2…2
2RLCAPLRK2…2APGTFSN = target: 2RLCAPLRK2…2APGTFSN
CDQVETQA2…2TSTSPTRC = target: CDQVETQA2…2TSTSPTRC
LS2…2TREQNRIC = target: LS2…2TREQNRIC
[9] = target: NWVPE2…
Sequence of NWVPE2… (peptide, as listed by the source): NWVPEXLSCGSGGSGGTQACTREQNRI

LSCGSR2…2 = target: LSCGSR2…2
…2…2R = target: …2…2R
[10] = target: Y2…2…
LSCGSR2…2T2 = target: LSCGSR2…2T2
[11] = target: EGCRL2…
Sequence of EGCRL2… (peptide, as listed by the source): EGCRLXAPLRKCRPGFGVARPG

PE2LS2…2RPG = target: PE2LS2…2RPG
[12] = target: LWNWVPE2…
Sequence of LWNWVPE2… (peptide, as listed by the source): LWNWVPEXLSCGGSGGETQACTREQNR

E2LSCGSR2…2T = target: E2LSCGSR2…2T
CAPLRK2…2RLC = target: CAPLRK2…2RLC
…2RPGW = target: …2RPGW
E2LSCGSR2…2 = target: E2LSCGSR2…2
[13] = target: WY2…
Sequence of WY2… (peptide, as listed by the source): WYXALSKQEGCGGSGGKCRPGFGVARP

[14] = target: Y2…
Sequence of Y2… (peptide, as listed by the source): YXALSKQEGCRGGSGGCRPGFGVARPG

CG2RL2APLRK2…2RLC = target: CG2RL2APLRK2…2RLC
QNRI2…2R = target: QNRI2…2R
[15] = target: DVV2…
…2…2TSTSPTRC [16] = target: …2…2TSTSPTRC; remark: listed apart in the source
LSKQEG2…2APGTFSN = target: LSKQEG2…2APGTFSN
2LSCGSR2…2 = target: 2LSCGSR2…2
[17] = target: …2GGSGGL2…
[18] = target: CG2RL2APLRK2RPGFCQA2TREQNRI2T2RPC
E2LS2…2RPGW = target: E2LS2…2RPGW
C2…22SK2SPGQHC = target: C2…22SK2SPGQHC
WNWVPE2…2T2 = target: WNWVPE2…2T2
[19] = target: E2LS2…2…
NRI2…2R = target: NRI2…2R
CQA2TREQNRI2T2…2TSTSPTRC = target: CQA2TREQNRI2T2…2TSTSPTRC
LCAPLRK2…2APGTFSN = target: LCAPLRK2…2APGTFSN
[20] = target: …2AGGSGGL2…
…2RPG = target: …2RPG
Sequence of …2RPG (peptide, as listed by the source): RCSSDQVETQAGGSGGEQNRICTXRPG

…2…2RPGW = target: …2…2RPGW
PE2LSCGSR2…2T = target: PE2LSCGSR2…2T
PE2LS2…2…2 = target: PE2LS2…2…2

Sequence of CGSR2… (peptide, as listed by the source): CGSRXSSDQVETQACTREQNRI

## agonistic TNFR2 antibody MR2-1
[1]
  Raw luminescence data: 150
[2]
  Raw luminescence data: 156
QNRI2…2RL
  Raw luminescence data: 151
[3]
  Raw luminescence data: 151
CLSKQEG2RL2…22SK2C
  Raw luminescence data: 156
[4]
  Raw luminescence data: 153
…2TSTSPTRC
  Raw luminescence data: 154
[5]
  Raw luminescence data: 155
ALSKQEG2…2APGTFSN
  Raw luminescence data: 151
[6]
  Raw luminescence data: 155
…2…2TSTSPTRC [7]
  Raw luminescence data: 156
E2LSCGSR2…2T2
  Raw luminescence data: 153
…2RLCQA2TREQNRI2T2RPC
  Raw luminescence data: 150
CDQVETQA2…2TREQNRI2T2RPC
  Raw luminescence data: 154
[8]
  Raw luminescence data: 155
NWVPE2…2
  Raw luminescence data: 258
2RLCAPLRK2…2APGTFSN
  Raw luminescence data: 245
CDQVETQA2…2TSTSPTRC
  Raw luminescence data: 251
LS2…2TREQNRIC
  Raw luminescence data: 232
[9]
  Raw luminescence data: 229
LSCGSR2…2
  Raw luminescence data: 274
…2…2R
  Raw luminescence data: 225
[10]
  Raw luminescence data: 245
LSCGSR2…2T2
  Raw luminescence data: 226
[11]
  Raw luminescence data: 239
PE2LS2…2RPG
  Raw luminescence data: 277
[12]
  Raw luminescence data: 260
E2LSCGSR2…2T
  Raw luminescence data: 225
CAPLRK2…2RLC
  Raw luminescence data: 227
…2RPGW
  Raw luminescence data: 276 and 272
E2LSCGSR2…2
  Raw luminescence data: 262
[13]
  Raw luminescence data: 254
[14]
  Raw luminescence data: 256
CG2RL2APLRK2…2RLC
  Raw luminescence data: 252
QNRI2…2R
  Raw luminescence data: 242
[15]
  Raw luminescence data: 243
…2…2TSTSPTRC [16]
  Raw luminescence data: 267
LSKQEG2…2APGTFSN
  Raw luminescence data: 247
2LSCGSR2…2
  Raw luminescence data: 251
[17]
  Raw luminescence data: 250
[18]
  Raw luminescence data: 244
E2LS2…2RPGW
  Raw luminescence data: 233
C2…22SK2SPGQHC
  Raw luminescence data: 263
WNWVPE2…2T2
  Raw luminescence data: 247
[19]
  Raw luminescence data: 233
NRI2…2R
  Raw luminescence data: 229
CQA2TREQNRI2T2…2TSTSPTRC
  Raw luminescence data: 274
LCAPLRK2…2APGTFSN
  Raw luminescence data: 262
[20]
  Raw luminescence data: 254
…2RPG
  Raw luminescence data: 257
…2…2RPGW
  Raw luminescence data: 270
PE2LSCGSR2…2T
  Raw luminescence data: 275
PE2LS2…2…2
  Raw luminescence data: 262
